Measurements as given in the supplement of paper PMC12042874.
± gives the uncertainty stated by the source.

Assay: amyloid nucleation score (Sup35N fusion, yeast selection) (log enrichment); library NNK3; higher = more nucleation; inactive = no reads after selection
In short: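 Using DiMSum, nucleation scores were taken as the log enrichment of output over input reads, centred on the mode score of non-aggregating sequences. The input and output reads came from Illumina sequencing of plasmid inserts, with sequences under 100 input reads excluded. The yeast were psi-negative, expressed Sup35N fused to peptides of 20 random codons, were induced with 100 μM copper sulfate for 24 hours, and were grown 7 days at 30°C on medium lacking adenine and uracil.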

Substance	amyloid nucleation score
FLCWIYDECKGVRCVRLGAI	inactive
NVDDLGFLFIVDAYINCHFR	1.58 ± 0.12
RCVLRW	1.34 ± 0.12
IWWILIDP	inactive
FDFKAYESCCSLLRYLMDPW	inactive
LTEMVLPLVHHLKTWSFVQE	inactive
VTAFATNKVC	inactive
VFVSSKTISLSGSLMISPNL	1.69 ± 0.086
TVRYVVSASTWHMSLQSPTL	1.33 ± 0.11
IRYCGHIRTGCFRLISDLF	inactive
TGLNGLRVLYSMRRPGKV	inactive
RVKRWK	-0.095 ± 0.85
NWDTNFVYSIGIDIY	inactive
NVSQFISIGVVITFKMLLVW	-0.478 ± 0.68
HNETKLCSHMLGVMGKNCGE	inactive
RSAKAYLTLWCRMYNPRIYM	-0.345 ± 1.3
WRYVFLVC	inactive
WMHRAYWLSGVCRVLQVTNL	inactive
KRSPKIQDL	inactive
KYVVQPYGSCRWGLITVRAN	inactive
SYMISPAVGKDRDM	inactive
RIYQRSFIWCASMESGSGPL	0.747 ± 0.2
RFNTDSQPAVMIVFRYNRLR	inactive
QKIVSPRSGGFASPRMRQKV	inactive
SYYLRLYEVTWFSRFGFDRS	inactive
VCADIVLPQMDLPGSSGREK	inactive
WSFRVKTNRDDTEMLLSRSE	inactive

Substance	amyloid nucleation score
YREVYLNRRLERL	inactive
PVVTMLYLTSIVSSSGHGSY	0.898 ± 0.11
GVISVFWMLWYLYPSLL	inactive
KLVATVFTSRCATVWLVQGF	inactive
WGFVWRVFLLKMC	inactive
GYNICWTPWYAVLDGVTKML	inactive
IGTDWRARAMAALYI	inactive
QYCSGSLKFRGVPIFNGDDG	inactive
DSLKSKFSKVLGPLNRACFY	inactive
LHVFSECRFIRSLLGPNGIF	inactive
VNDPEAR	-0.391 ± 1.2
LFMCMIFDCDIRIVNSVGCI	1.43 ± 0.14
GWSYRDLTMVGVNELFV	inactive
QLGDMNAAALITATASRLVM	inactive
KGLFWEGYGMMLRLRWWMMV	inactive
FWSSFAMRAYSVIWYTLSTC	inactive
CEVHEGWIA	inactive
ALMLDIFGRCTLRFRISGHG	inactive
KVILPWKLWADGWRDY	inactive
AHGTMGGNYGRNVQLDDRLN	inactive
VFFMNYGHVIVHFEKFFGGN	2.6 ± 0.082
VYRCVFWDVCAWCFKFR	0.778 ± 0.14
YSISKAFPMLSRLDMDMFGA	inactive
QLFMPGSVVTHRSYFTCMWL	1.95 ± 0.064
FNALSWSVDFLWYARTTCVD	inactive
GSMSLIYYGLRRKVMGYVLS	0.316 ± 0.7
LSYGFLGDRYVLHGCLMYFP	inactive

Substance	amyloid nucleation score
IWKRLYPFTVRQVSCTIMCD	inactive
SALPVTSCFFTTMCGTVIID	inactive
TYLVNSDMMGDRIFGACRDV	inactive
YLVQNFKT	-0.401 ± 0.6
LGDDVFSLAFGDNFKDHKFH	inactive
RQFCSQLICSIMVYVCLCGI	inactive
VIYRSYLRIDSFIGRGGLII	0.567 ± 0.26
FRPGLYSYMPSC	-0.451 ± 0.88
CWTVMFCF	1.43 ± 0.11
SKTGLDMADMIKRGDCGEST	inactive
TVNQKPY	inactive
CWLAAFSFRRSVLSCQGGQG	inactive
KYKLTLYDNAVSGGDALHLR	inactive
ANHNLYRDDDREYFFMLCY	inactive
DVTYECGRS	inactive
LFITSHREGDWWLSTVRIHF	0.367 ± 0.27
QIQGMNSQKRLRLKKP	inactive
VFNIRHSSDPRLYLTYVMSS	1.19 ± 0.12
TYMSNNTMGEFFLNLRVNLY	2.44 ± 0.068
NWDFFKLKVNSHLTYAHDHR	inactive
KNGIITLSSIT	inactive
LRSLLNQVMSYSMYILYNSQ	inactive
NFLGAFRIPRLLRSLVALYL	inactive
YDKWSRSMYVKLCLGAALSW	inactive
KMGPILKCPR	inactive
